The experiment concerns the target T1, SDS22 (tag-free, purified) (human, UniProt Q15435 1-360).
T1 construct: SDS22 (PPP1R7), human, wild type; also called SDS22-WT; untagged SDS22; source: HEK293T, transiently transfected; EGFP-SDS22 purified on EGFP-trap beads, tag-free after TEV protease
T1 sequence (looked up): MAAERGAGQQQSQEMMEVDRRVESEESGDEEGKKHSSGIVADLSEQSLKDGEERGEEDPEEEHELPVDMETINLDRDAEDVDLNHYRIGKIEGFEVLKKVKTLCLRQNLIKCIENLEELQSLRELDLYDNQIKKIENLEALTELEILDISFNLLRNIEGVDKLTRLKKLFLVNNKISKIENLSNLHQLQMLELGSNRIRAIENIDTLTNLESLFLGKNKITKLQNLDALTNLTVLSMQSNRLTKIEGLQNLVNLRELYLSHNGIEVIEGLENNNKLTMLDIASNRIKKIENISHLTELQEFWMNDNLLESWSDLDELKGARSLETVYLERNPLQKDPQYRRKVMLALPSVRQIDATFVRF
Briefly: ITC; 5 μM SDS22 in the cell titrated with 50 μM His-I3 (20 injections), 22 °C, MicroCal iTC200; binding curves not saturated. The following applies: both partners purified.

The record followed here is paper PMC11199634 (Nature Communications, 2024).

B1: His-I3 (natural protein, human, UniProt O60927 1-126, looked up)
chain: MAEAGAGLSETVTETTVTVTTEPENRSLTIKLRKRKPEKKVEWTSDTVDNEHMGRRSSKCCCIYEKPRAFGESSTESDEEEEEGCGHTHCVRGHRKGRRRATLGPTPTTPPQPPDPSQPPPGPMQH
notes: source: E. coli BL21 (pET16b), purified (Ni2+-Sepharose)
B1 gave a Kd of 7.6 µM. This counts as single-digit micromolar.
